Assay results published in patent publication US20200199213A1 (Eli Lilly, published 2020).
Positions count from the first letter of the chain named. Numbers in names are those of the source.

T1: human ANGPTL8 (human, UniProt Q6UXH0 22-198)
T1 construct: Biotinylated in the ELISA assays; also called hANGPTL8; free ANGPTL8
T1 sequence: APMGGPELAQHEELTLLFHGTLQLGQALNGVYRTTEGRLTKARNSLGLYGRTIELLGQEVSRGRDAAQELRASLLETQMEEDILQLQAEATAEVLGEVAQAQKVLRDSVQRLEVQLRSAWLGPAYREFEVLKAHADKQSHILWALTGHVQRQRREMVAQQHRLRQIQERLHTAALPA

T2: human ANGPTL3 (human, UniProt Q9Y5C1 17-460)
T2 construct: Biotinylated in the ELISA assays; also called hANGPTL3; free ANGPTL3
T2 sequence: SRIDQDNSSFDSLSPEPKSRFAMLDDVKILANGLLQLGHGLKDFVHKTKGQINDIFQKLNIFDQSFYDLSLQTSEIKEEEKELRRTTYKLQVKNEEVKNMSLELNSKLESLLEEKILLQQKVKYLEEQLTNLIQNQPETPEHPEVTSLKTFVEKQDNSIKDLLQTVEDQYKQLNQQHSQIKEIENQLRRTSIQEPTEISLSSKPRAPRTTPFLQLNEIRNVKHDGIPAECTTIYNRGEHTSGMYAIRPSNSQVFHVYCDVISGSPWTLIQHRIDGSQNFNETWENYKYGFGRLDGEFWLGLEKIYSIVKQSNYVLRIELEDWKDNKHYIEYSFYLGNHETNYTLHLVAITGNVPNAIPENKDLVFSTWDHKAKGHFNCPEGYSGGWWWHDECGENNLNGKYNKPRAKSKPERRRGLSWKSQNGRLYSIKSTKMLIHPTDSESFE

T3: human ANGPTL3/8 complex (human, UniProt Q9Y5C1 17-460; Q6UXH0 22-198, limits assumed)
T3 construct: also called hANGPTL3/8 complex; ANGTPL3/8 complex
T3 sequence 1: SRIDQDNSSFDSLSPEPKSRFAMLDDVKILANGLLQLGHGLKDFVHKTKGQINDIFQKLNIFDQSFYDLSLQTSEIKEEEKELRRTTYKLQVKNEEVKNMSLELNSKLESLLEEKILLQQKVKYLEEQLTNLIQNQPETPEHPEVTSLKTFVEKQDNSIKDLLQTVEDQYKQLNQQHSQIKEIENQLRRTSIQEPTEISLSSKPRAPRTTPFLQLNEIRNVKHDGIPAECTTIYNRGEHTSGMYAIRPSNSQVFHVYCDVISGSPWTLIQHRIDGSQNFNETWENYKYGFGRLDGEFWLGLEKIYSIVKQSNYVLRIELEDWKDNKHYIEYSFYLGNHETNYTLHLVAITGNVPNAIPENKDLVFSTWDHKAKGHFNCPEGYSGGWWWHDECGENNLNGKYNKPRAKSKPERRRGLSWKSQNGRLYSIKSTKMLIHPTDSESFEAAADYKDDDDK
T3 sequence 2: T1 sequence

B1: anti-ANGPTL3/8 complex Ab having a LC of SEQ ID NO:5 and a HC of SEQ ID NO:6 (antibody, human IgG4 S228P, kappa, F234A L235A, V domains shown)
VH: QVTLKESGPTLVKPTQTLTLTCTFSGFSLSISGVGVGWIRQPPGKALEWLALIYRNDDKRYSPSLKSRLTITKDTSKNQVVLTLTNMDPVDTATYYCARTYSSGWYGNWFDPWGQGTLVTVSS
VL: DIVMTQTPLSLPVTPGEPASISCRSSQSLLDSDDGNTYLDWYLQKPGQSPQLLIYMLSYRASGVPDRFSGSGSGTDFTLKISRVEAEDVGIYYCMQRIEFPLTFGGGTKVEIKR
notes: In the ELISA assays tested as IgG from CHO supernatants; also called the Ab
B2: Ab with LC variant having a E99Q mutation (SEQ ID NO:25) and a HC of SEQ ID NO:6 (antibody, human IgG4 S228P, kappa, F234A L235A, V domains shown)
VH: B1 VH
VL: B1 VL with E99Q
notes: also called E99Q Variant Ab; E99Q Ab
B3: Ab with LC variant having a D31S mutation (SEQ ID NO:21) and a HC of SEQ ID NO:6 (antibody, human IgG4 S228P, kappa, F234A L235A, V domains shown)
VH: B1 VH
VL: B1 VL with D31S
notes: also called D31S Variant Ab; D31S Ab
B4: Ab with LC variant having a D33A mutation (SEQ ID NO:22) and a HC of SEQ ID NO:6 (antibody, human IgG4 S228P, kappa, F234A L235A, V domains shown)
VH: B1 VH
VL: B1 VL with D33A
notes: also called D33A Variant Ab; D33A Ab

Target: T1, human ANGPTL8
Assay: single point ELISA
Description: (§1) Single Point ELISA (SPE) Assay: Ab binding selectivity to either the ANGPTL3/8 complex, free ANGPTL3 or free ANGPTL8 is initially verified using standard ELISA assays in a single point format. […] IgG secreted into supernatants after expression in CHO cells are then captured to the assay plate. Biotinylated antigen is added at a concentration of 25 nM to allow for Ab/antigen binding. Ab/antigen complexes are detected after adding alkaline phosphatase-conjugated neutravidin and alkaline phosphatase substrate, and subsequent measurement of the optical density at 560 nm. Positive binding is determined by a signal greater than 3 fold over the non-binding background signal.

B1: no binding.
B2: no binding.

Target: T2, human ANGPTL3
Assay: single point ELISA
Description: as §1

B1: no binding.
B2: no binding.

Target: T1, human ANGPTL8
Assay: ELISA, antigen titration
Description: (§2) ELISA Assay: Ab binding selectivity to either the ANGPTL3/8 complex, free ANGPTL3 or free ANGPTL8 is verified using standard ELISA assays. […] Ab from CHO supernatants after expression in CHO cells is then captured to the assay plate and results is an Ab concentration of 2 μg/ml. Biotinylated antigen (ANGPTL3, ANGPTL8 or ANGPTL3/8 complex) is added at varying concentrations by serial dilution to allow for Ab/antigen binding. Ab/antigen complexes are detected after the addition of alkaline phosphatase-conjugated neutravidin, and alkaline phosphatase substrate, and subsequent measurement of the optical density at 560 nm.

B3: no binding (tested: 100 nM antigen).
B4: no binding (tested: 100 nM antigen).

Target: T2, human ANGPTL3
Assay: ELISA, antigen titration
Description: as §2

B3: no binding (tested: 100 nM antigen).
B4: no binding (tested: 100 nM antigen).

Target: T3, human ANGPTL3/8 complex
Assay: ELISA; Ab captured by anti-human Fc; biotinylated antigen at 11.1 nM
Description: as §2

In order of falling “OD at 560 nm” value:
1. B3  1.74 OD 560 nm
2. B2  1.74 OD 560 nm
3. B1  1.71 OD 560 nm
4. B4  1.64 OD 560 nm

Target: T1, human ANGPTL8
Assay: as above
Description: as §2

In order of falling “OD at 560 nm” value:
1. B3  0.062 OD 560 nm
2. B2  0.062 OD 560 nm
3. B4  0.048 OD 560 nm
4. B1  0.045 OD 560 nm

Target: T2, human ANGPTL3
Assay: as above
Description: as §2

In order of falling “OD at 560 nm” value:
1. B3  0.062 OD 560 nm
2. B2  0.062 OD 560 nm
3. B4  0.06 OD 560 nm
4. B1  0.046 OD 560 nm

Target: T1, human ANGPTL8
Assay: ELISA; Ab captured by anti-human Fc; biotinylated antigen at 0.137 nM
Description: as §2

In order of falling “OD at 560 nm” value:
1. B3  0.08 OD 560 nm
2. B2  0.08 OD 560 nm
3. B4  0.053 OD 560 nm
4. B1  0.047 OD 560 nm

Target: T2, human ANGPTL3
Assay: as above
Description: as §2

In order of rising “OD at 560 nm” value:
1. B1  0.048 OD 560 nm
2. B3  0.057 OD 560 nm
3. B2  0.057 OD 560 nm
4. B4  0.062 OD 560 nm
